Measured values taken from paper PMC5586346.

Columns and labels:
[1] = biological target: dominant-negative α7 nAChR α7_(345-8A) (UniProt P36544)
[2] = biological target: α7 nicotinic acetylcholine receptor (mouse (endogenous in EOC20)) (UniProt P49582)
[3] = biological target: dominant-negative α7 nAChR α7_(345-8A) (UniProt P36544); remark: listed apart in the source
[4] = biological target: α7 nicotinic acetylcholine receptor (mouse (endogenous in EOC20)) (UniProt P49582); remark: listed apart in the source

TNF-α release (ELISA of the medium), % change from baseline with LPS, LPS + 1 mM choline, EOC20 cells transfected with α7 (345-8A) [1]: -9.22%
TNF-α release (ELISA of the medium), % change from baseline with LPS, LPS + 1 mM choline, EOC20 cells transfected with empty vector [2]: -25.8%
peak of the intracellular calcium transient (GCaMP5G, % of baseline) on 3 mM choline, EOC20 cells transfected with α7 (345-8A) [3]: 368%
peak of the intracellular calcium transient (GCaMP5G, % of baseline) on 3 mM choline, EOC20 cells transfected with empty plasmid [4]: 580%
Substance: heterotrimeric G protein subunit Gαi (from UniProt P08752 1-355) (natural protein)
